Laboratory results from patent publication US20260265358A1 (BYOMASS, published 2026).
“And” between values parts separate entries of the source, which are not always exact repeats. Identical values can stand only once. Blank lines part the entries; values can stand above or below the binder they belong to.

Columns and labels:
Human Activin A Fc [1] = biological target: T1, Human Activin A Fc (human, UniProt P03970 309-424 (pig entry)); assay: Octet BLI, IgG, avid
T1 construct: also called human Activin A-Fc fusion; human Activin A-Fc antigen; not shown: Fc part
T1 sequence: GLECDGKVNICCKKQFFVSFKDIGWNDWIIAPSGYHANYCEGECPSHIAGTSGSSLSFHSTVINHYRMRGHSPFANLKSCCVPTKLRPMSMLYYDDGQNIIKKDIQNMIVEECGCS
Method: ForteBio affinity measurements were performed on an Octet HTX generally as previously described (see, e.g., Estep et al, Mabs 5(2), 270-278 (2013)). Briefly, ForteBio affinity measurements were performed by loading IgGs on-line onto AHC sensors. Sensors were equilibrated off-line in assay buffer for 30 min and then monitored on-line for 60 seconds for baseline establishment. Sensors with loaded IgGs were exposed to 100 nM antigen for 3 minutes, and afterwards were transferred to assay buffer for 3 min for off-rate measurement. All kinetics were analyzed using the 1:1 binding model.
Binding affinity and epitope binning assays were performed with a ForteBio instrument as described herein.

Activin B = biological target: T2, Activin B (UniProt P09529 293-407); assay: Octet BLI, IgG, avid
T2 sequence (looked up): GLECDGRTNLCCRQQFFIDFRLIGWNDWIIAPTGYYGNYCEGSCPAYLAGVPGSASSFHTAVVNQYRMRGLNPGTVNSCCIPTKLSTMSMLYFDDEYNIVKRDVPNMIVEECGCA

BMP9 = biological target: T3, BMP9 (UniProt Q9UK05 320-429); assay: Octet BLI, IgG, avid
T3 sequence (looked up): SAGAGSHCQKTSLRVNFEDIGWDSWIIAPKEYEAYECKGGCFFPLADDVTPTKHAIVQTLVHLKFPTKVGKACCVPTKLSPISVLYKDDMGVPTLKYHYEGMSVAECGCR

BMP10 = biological target: T4, BMP10 (UniProt O95393 317-424); assay: Octet BLI, IgG, avid
T4 sequence (looked up): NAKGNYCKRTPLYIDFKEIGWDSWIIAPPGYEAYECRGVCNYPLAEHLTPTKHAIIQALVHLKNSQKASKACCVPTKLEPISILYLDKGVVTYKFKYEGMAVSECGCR

GDF15 Fc = biological target: T5, GDF15 Fc (UniProt Q99988 197-308, limits assumed); assay: Octet BLI, IgG, avid
T5 construct: not shown: Fc part
T5 sequence (looked up): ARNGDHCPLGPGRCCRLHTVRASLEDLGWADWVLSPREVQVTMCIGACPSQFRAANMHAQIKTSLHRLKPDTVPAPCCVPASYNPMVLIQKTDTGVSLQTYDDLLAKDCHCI

Human GDNF = biological target: T6, Human GDNF (human, UniProt P39905 78-211); assay: Octet BLI, IgG, avid
T6 sequence (looked up): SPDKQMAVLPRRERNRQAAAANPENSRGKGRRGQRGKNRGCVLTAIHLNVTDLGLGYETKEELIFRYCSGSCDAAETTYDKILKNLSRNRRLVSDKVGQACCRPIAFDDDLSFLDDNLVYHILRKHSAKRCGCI

Human GDF8 = Human GDF8 (human, UniProt O14793 267-375); assay: Octet BLI, IgG, avid
Human GDF10 = biological target: T7, Human GDF10 (human, UniProt P55107 369-478); assay: Octet BLI, IgG, avid
T7 sequence (looked up): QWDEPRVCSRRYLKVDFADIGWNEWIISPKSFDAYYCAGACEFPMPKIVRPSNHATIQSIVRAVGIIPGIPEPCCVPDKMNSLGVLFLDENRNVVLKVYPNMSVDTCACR

Human GDF11 = Human GDF11 (human, UniProt O95390 299-407); assay: Octet BLI, IgG, avid
Sequence of Human GDF11 (O95390 299-407 limits assumed): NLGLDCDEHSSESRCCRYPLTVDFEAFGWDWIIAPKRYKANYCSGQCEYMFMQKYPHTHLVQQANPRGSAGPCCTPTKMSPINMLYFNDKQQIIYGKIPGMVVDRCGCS

Human Activin A Fc [2] = biological target: T1, Human Activin A Fc; assay: KD with 5% HSA, method not stated
Human Activin B Fc [3] = biological target: T8, Human Activin B Fc (human, UniProt P09529 293-407, limits assumed); assay: KD with 5% HSA, method not stated
T8 construct: not shown: Fc part
T8 sequence (looked up): T2 sequence (looked up)

Human GDF-11 Fc [4] = biological target: T9, Human GDF-11 Fc (human, UniProt O95390 299-407, limits assumed); assay: KD with 0.1% BSA, method not stated
T9 construct: not shown: Fc part
T9 sequence (O95390 299-407 limits assumed): as above

Human Activin B Fc [5] = biological target: T8, Human Activin B Fc; assay: KD with 0.1% BSA, method not stated
Human Activin A Fc [6] = biological target: T1, Human Activin A Fc; assay: KD with 0.1% HSA, method not stated
Human GDF-11 Fc [7] = biological target: T9, Human GDF-11 Fc; assay: KD with 0.1% HSA, method not stated
Human Activin B Fc [8] = biological target: T8, Human Activin B Fc; assay: KD with 0.1% HSA, method not stated
Human Activin A Fc [9] = biological target: T1, Human Activin A Fc; assay: KD with 0.1% BSA, method not stated; with 0.1% BSA
Human Activin A Fc [10] = biological target: T1, Human Activin A Fc; assay: Octet BLI, Fab, monovalent
[11] = biological target: T10, biotinylated Human Activin A (human, UniProt P03970 309-424 (pig entry), biotinylated (EZ-Link Sulfo-NHS-Biotinylation Kit)); assay: SPR (Biacore 8K), antigen captured, Fab analyte
T10 sequence: T1 sequence
Method: (§1) Kinetic analysis was conducted at 25° C. in HBS-EP+ running buffer (10 mM HEPES pH 7.4, 150 mM NaCl, 3 mM EDTA, 0.05% Surfactant P20) using a Biacore 8K optical biosensor (Cytiva, Marlborough, MA). The sample compartment was maintained at 10° C. for the duration of the experiment. The Biacore 8K can analyze up to 8 separate interactions in a single cycle.
(§2) Each experiment cycle began with an injection (300 s at 2 μL/min) overflow cells 1 and 2 of a 1:100 solution of biotin CAPture reagent (Cytiva) in running buffer. This was followed by an injection (45 s at 10.0 μL/min) of biotinylated human ACTIVIN A (5 nM) overflow cell 2. Upon capture of ACTIVIN A to the sensor surface, a single concentration of Fab ranging from 0.111-81.0 nM was injected (300 s at 30 μL/min) overflow cells 1 and 2. The dissociation of the antibodies were monitored for 3420 s. Finally, an injection (120 s at 10 μL/min) of regeneration solution (6 M Guanidine-HCl in 0.25 M NaOH) overflow cells 1 and 2 prepared the sensor surface for another cycle. Several blank buffer samples were injected (300 s at 30 μL/min) overflow cells 1 and 2 throughout the duration of the experiment and used for reference surface subtraction—each were monitored for the same amount of dissociation time (3420 s) and regenerated under the same conditions as those for the Fab sample injections.
(§3) The anti-Activin antibodies identified in Example 1 were characterized. First, binding kinetics of the anti-Activin antibodies was assessed with a Surface Plasmon Resonance assay (Biacore).

[12] = biological target: T10, biotinylated Human Activin A; assay: SPR (Biacore 8K), antigen captured, Fab analyte; second, unlabelled row under Clone B (Rmax 38.1)
Method: as §1
as §2, with “Finally, an injection (120 s at 10 μL/min) of regeneration solution (6 M Guanidine-HCl in 0.25 M NaOH) overflow cells 1 and 2 prepared the sensor surface for another cycle.” left out
as §3

- Kd (Human Activin A Fc [1]): 0.527 nM
- Kd (Activin B): 46.8 nM
- binding result (BMP9): no binding (tested: 100 nM antigen)
- binding result (BMP10): no binding (tested: 100 nM antigen)
- binding result (GDF15 Fc): no binding (tested: 100 nM antigen)
- binding result (Human GDNF): no binding (tested: 100 nM antigen)
- binding result (Human GDF8): no binding (tested: 100 nM antigen)
- binding result (Human GDF10): no binding (tested: 100 nM antigen)
- Kd (Human GDF11): 21 nM
- Kd (Human Activin A Fc [2]): 0.217 nM
- Kd (Human Activin B Fc [3]): 10 nM
- Kd (Human GDF-11 Fc [4]): 18.9 nM
- Kd (Human Activin B Fc [5]): 3.37 nM
- Kd (Human Activin A Fc [6]): 0.138 nM
- Kd (Human GDF-11 Fc [7]): 18.3 nM
- Kd (Human Activin B Fc [8]): 2.96 nM
- Kd (Human Activin A Fc [9]): 0.138 nM
B1: anti-Activin A antibody Clone B (IgG) (antibody, V domains shown)
VH: QVQLVQSGAEVKKPGASVKVSCKASGYTFIGYDMHWVRQAPGQGLEWMGVINPSSGGTNYAQKFQGRVTMTRDTSISTAYMELSRLRSDDTAVYYCARARDIAALGLGAFDYWGQGTLVTVSS
VL: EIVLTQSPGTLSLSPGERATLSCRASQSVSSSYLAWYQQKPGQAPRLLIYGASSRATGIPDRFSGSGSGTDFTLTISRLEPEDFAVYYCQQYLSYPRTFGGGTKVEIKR
notes: IgG format; also called Antibody B

- Kd (Human Activin A Fc [10]): 0.309 nM
- Kd [11]: 0.00981 nM
- koff [11]: 2.27e-05 s⁻¹ and 1.58e-05 s⁻¹
- kon [11]: 2.31e+06 M⁻¹ s⁻¹ and 2.56e+06 M⁻¹ s⁻¹
- Kd [12]: 0.00617 nM
B2: Fab of anti-Activin A antibody Clone B (Fab, V domains shown)
VH: B1 VH
VL: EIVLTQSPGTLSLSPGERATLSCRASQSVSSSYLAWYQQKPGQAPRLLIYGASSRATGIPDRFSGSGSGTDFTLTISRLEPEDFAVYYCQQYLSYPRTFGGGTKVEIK
notes: Fab format; only VH and VL are tied to the clone; also called Fab of Clone B
